Measurements as given in article doi:10.1101/695700 (bioRxiv, 2019).

B1: vitronectin (natural protein, UniProt P04004 20-478, looked up)
chain: DQESCKGRCTEGFNVDKKCQCDELCSYYQSCCTDYTAECKPQVTRGDVFTMPEDEYTVYDDGEEKNNATVHEQVGGPSLTSDLQAQSKGNPEQTPVLKPEEEAPAPEVGASKPEGIDSRPETLHPGRPQPPAEEELCSGKPFDAFTDLKNGSLFAFRGQYCYELDEKAVRPGYPKLIRDVWGIEGPIDAAFTRINCQGKTYLFKGSQYWRFEDGVLDPDYPRNISDGFDGIPDNVDAALALPAHSYSGRERVYFFKGKQYWEYQFQHQPSQEECEGSSLSAVFEHFAMMQRDSWEDIFELLFWGRTSAGTRQPQFISRDWHGVPGQVDAAMAGRIYISGMAPRPSLAKKQRFRHRNRKGYRSQRGHSRGRNQNSRRPSRATWLSLFSSEESNLGANNYDDYRMDWLVPATCEPIQSVFFFSGDKYYRVNLRTRRVDTVDPPYPRSIAQYWLGCPAPGHL
B2: recombinant HC1 (rHC1), wild type; heavy chain 1 of inter-α-inhibitor (natural protein, human, UniProt P19827 35-672, looked up)
chain: SKSSEKRQAVDTAVDGVFIRSLKVNCKVTSRFAHYVVTSQVVNTANEAREVAFDLEIPKTAFISDFAVTADGNAFIGDIKDKVTAWKQYRKAAISGENAGLVRASGRTMEQFTIHLTVNPQSKVTFQLTYEEVLKRNHMQYEIVIKVKPKQLVHHFEIDVDIFEPQGISKLDAQASFLPKELAAQTIKKSFSGKKGHVLFRPTVSQQQSCPTCSTSLLNGHFKVTYDVSRDKICDLLVANNHFAHFFAPQNLTNMNKNVVFVIDISGSMRGQKVKQTKEALLKILGDMQPGDYFDLVLFGTRVQSWKGSLVQASEANLQAAQDFVRGFSLDEATNLNGGLLRGIEILNQVQESLPELSNHASILIMLTDGDPTEGVTDRSQILKNVRNAIRGRFPLYNLGFGHNVDFNFLEVMSMENNGRAQRIYEDHDATQQLQGFYSQVAKPLLVDVDLQYPQDAVLALTQNHHKQYYEGSEIVVAGRIADNKQSSFKADVQAHGEGQEFSITCLVDEEEMKKLLRERGHMLENHVERLWAYLTIQELLAKRMKVDREERANLSSQALQMSLDYGFVTPLTSMSIRGMADQDGLKPTIDKPSEDSPPLEMLGPRRTFVLSALQPSPTHSSSNTQRLPDRVTGVDTD

Tests used:
[1] = target: B2; experiment: SPR
AUC [2] = target: the molecule itself; experiment: AUC
AUC [3] = target: the molecule itself; experiment: AUC; remark: listed apart in the source

Row | Binder | Kd [1] [µM] | stoichiometry N (AUC [2]) | Kd (AUC [3]) [µM]
1 | B1 | ~0.0002 | – | –
2 | B2 | – | 2 | 35.3
